# T1: UPF1 (UniProt Q92900 1-352+364-1129, internal_change)
# T1 sequence: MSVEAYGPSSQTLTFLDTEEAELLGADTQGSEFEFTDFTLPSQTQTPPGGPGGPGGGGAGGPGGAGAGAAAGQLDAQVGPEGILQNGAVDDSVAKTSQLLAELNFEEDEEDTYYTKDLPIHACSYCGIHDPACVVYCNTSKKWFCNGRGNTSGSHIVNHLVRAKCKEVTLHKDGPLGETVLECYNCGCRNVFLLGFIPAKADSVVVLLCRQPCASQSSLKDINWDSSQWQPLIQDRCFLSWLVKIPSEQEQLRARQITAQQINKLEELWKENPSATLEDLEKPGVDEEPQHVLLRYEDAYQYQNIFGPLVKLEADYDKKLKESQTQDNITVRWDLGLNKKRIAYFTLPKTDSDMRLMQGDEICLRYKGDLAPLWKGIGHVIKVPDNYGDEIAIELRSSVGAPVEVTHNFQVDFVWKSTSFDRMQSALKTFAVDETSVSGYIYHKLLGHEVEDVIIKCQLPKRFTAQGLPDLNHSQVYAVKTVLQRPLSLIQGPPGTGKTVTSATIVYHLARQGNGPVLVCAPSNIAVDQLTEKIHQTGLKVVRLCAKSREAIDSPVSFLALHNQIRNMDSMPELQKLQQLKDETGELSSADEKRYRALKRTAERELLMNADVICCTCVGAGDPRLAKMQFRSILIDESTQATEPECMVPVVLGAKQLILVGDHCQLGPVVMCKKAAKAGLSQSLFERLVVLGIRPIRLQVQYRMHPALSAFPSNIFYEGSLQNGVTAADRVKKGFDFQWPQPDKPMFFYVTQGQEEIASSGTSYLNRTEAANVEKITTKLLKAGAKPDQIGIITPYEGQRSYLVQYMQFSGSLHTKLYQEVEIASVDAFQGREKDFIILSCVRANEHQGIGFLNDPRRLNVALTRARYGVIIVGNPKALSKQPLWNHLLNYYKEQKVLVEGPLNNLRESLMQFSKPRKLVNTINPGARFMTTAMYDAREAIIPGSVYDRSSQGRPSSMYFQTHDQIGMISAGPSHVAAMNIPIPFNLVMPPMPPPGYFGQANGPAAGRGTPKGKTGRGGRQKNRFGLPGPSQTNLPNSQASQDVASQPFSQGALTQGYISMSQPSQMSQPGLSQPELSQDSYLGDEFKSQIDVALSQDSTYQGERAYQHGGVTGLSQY
# B1: CSL specific motif (dsDNA)
# DNA 1: GTTACTGTGGGAAAGAAAG
# DNA 2: CTTTCTTTCCCACAGTAAC
# B2: SCRAMBLED (dsDNA)
# DNA 1: GCTACTCATACCTAGAACG
# DNA 2: CGTTCTAGGTATGAGTAGC
# B3: TELO (TTAGGG)3 (dsDNA)
# DNA 1: TTAGGGTTAGGGTTAGGG
# DNA 2: CCCTAACCCTAACCCTAA
# Columns and labels:
# [1] = biological target: T2, CSL (RBP-Jkappa) (UniProt Q06330 1-500); assay: MST; 200 nM labelled CSL; MST in standard MST buffer (composition and pH not given), premium-treated capillaries, Monolith NT.115; 20 min at room temperature stated for the protein mixes; conditions: protein: commercial; tags: RED-NHS dye when labelled; blunt
# T2 sequence (Q06330 whole entry): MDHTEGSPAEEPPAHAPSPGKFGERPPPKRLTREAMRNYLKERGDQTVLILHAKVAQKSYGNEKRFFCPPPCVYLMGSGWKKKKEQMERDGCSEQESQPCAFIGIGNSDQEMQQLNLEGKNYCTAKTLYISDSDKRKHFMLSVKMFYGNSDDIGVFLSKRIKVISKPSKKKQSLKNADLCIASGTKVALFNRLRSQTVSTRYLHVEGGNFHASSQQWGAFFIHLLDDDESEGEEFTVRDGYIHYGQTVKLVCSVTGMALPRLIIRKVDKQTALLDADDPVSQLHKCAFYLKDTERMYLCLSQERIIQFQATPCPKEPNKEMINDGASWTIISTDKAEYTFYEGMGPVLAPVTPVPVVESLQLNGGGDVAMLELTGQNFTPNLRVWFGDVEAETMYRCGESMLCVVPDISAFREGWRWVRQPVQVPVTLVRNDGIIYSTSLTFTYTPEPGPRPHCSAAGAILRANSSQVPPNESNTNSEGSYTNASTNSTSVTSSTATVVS
# [2] = biological target: T1, UPF1; assay: MST; 50 nM labelled DNA; no binding specificity; MST in standard MST buffer (composition and pH not given), premium-treated capillaries, Monolith NT.115; 20 min at room temperature stated for the protein mixes; conditions: protein: commercial; label: 647-NHS; blunt
# [3] = biological target: T2, CSL (RBP-Jkappa); assay: MST; second independent experiment; 50 nM labelled DNA; MST in standard MST buffer (composition and pH not given), premium-treated capillaries, Monolith NT.115; 20 min at room temperature stated for the protein mixes; conditions: protein: commercial; tags: RED-NHS dye when labelled; label: 647-NHS; blunt
# [4] = biological target: T2, CSL (RBP-Jkappa); assay: MST; 50 nM labelled DNA; MST in standard MST buffer (composition and pH not given), premium-treated capillaries, Monolith NT.115; 20 min at room temperature stated for the protein mixes; conditions: protein: commercial; tags: RED-NHS dye when labelled; label: 647-NHS; blunt
Binder,Kd [1],Kd [2],Kd [3],Kd [4]
B1,121 ± 17.4 nM,,,
B2,3380 ± 77.6 nM,,,
B3,,3.52 ± 0.0468 µM,232 ± 15.4 nM,235 ± 23.9 nM
